Measurements reported in paper PMC5374107.

These substances were tested against ICAM-1D1D5-Fc (human) (assay: SPR; Biacore T-200; ICAM-1D1D5 Fc immobilized to 1,400 RU on a CM5 chip pre-coupled to Protein A; head structures injected, two-fold dilutions 4 nM to 500 nM, 40 µL/min, 240 s association, 600 s dissociation; 10 mM HEPES pH 8.0, 300 mM NaCl, 0.05% Tween-20; one-site kinetic model).
“PFD1235w head structure (CIDRα1.6-DBLβ3) (domain or fragment)” showed a Kd of 18 nM, a koff of 0.000108 s⁻¹ and a kon of 6000 M⁻¹ s⁻¹.

What follows are substances tested against ICAM-1D1D5-Fc (human) (assay: SPR; Biacore T-200; ICAM-1D1D5 Fc immobilized to 2100 RU on a CM5 chip pre-coupled to Protein A; wild type or mutant PF11_0521 DBLβ3_D4 injected, two-fold dilutions 4 nM to 500 nM, 40 µL/min, 240 s association, 660 s dissociation; 10 mM HEPES pH 8.0, 300 mM NaCl, 0.05% Tween-20; global fit to a one-site kinetic model).
Work on “PF11_0521 DBLβ3_D4 G1083A (domain or fragment)” yielded a Kd of 3520 nM, a koff of 0.0701 s⁻¹ and a kon of 19900 M⁻¹ s⁻¹.
Work on “PF11_0521 DBLβ3_D4 G1084A (domain or fragment)” yielded a Kd of 4060 nM, a koff of 0.0394 s⁻¹ and a kon of 9700 M⁻¹ s⁻¹.
With “PF11_0521 DBLβ3_D4 G1111A (domain or fragment)” the Kd was 34.1 nM, the koff was 0.000639 s⁻¹ and the kon was 18700 M⁻¹ s⁻¹.
Substance “PF11_0521 DBLβ3_D4 H1121A (domain or fragment)” has a Kd of 962 nM, a koff of 0.00592 s⁻¹ and a kon of 6100 M⁻¹ s⁻¹.
“PF11_0521 DBLβ3_D4 I1078S (domain or fragment)” gave a Kd of 1250 nM, a koff of 0.0235 s⁻¹ and a kon of 18800 M⁻¹ s⁻¹.
“PF11_0521 DBLβ3_D4 K1124A (domain or fragment)” gave a Kd of 9.75 nM, a koff of 0.000154 s⁻¹ and a kon of 15900 M⁻¹ s⁻¹.
“PF11_0521 DBLβ3_D4 M1071S (domain or fragment)” showed a Kd of 24.6 nM, a koff of 0.000451 s⁻¹ and a kon of 18400 M⁻¹ s⁻¹.
“PF11_0521 DBLβ3_D4 N1082A (domain or fragment)” showed a Kd of 1320 nM, a koff of 0.0244 s⁻¹ and a kon of 18400 M⁻¹ s⁻¹.
With “PF11_0521 DBLβ3_D4 N1089A (domain or fragment)” the Kd was 6.3 nM, the koff was 0.000114 s⁻¹ and the kon was 17900 M⁻¹ s⁻¹.
With “PF11_0521 DBLβ3_D4 P1116A (domain or fragment)” the Kd was 1690 nM, the koff was 0.00237 s⁻¹ and the kon was 1300 M⁻¹ s⁻¹.
In the case of “PF11_0521 DBLβ3_D4 R1077A (domain or fragment)”, the Kd is reported as 34.7 nM, the koff is reported as 0.000382 s⁻¹ and the kon is reported as 11000 M⁻¹ s⁻¹.
“PF11_0521 DBLβ3_D4 T1120A (domain or fragment)” was tested, and the Kd was 21.1 nM, the koff was 0.000298 s⁻¹ and the kon was 14100 M⁻¹ s⁻¹.
Work on “PF11_0521 DBLβ3_D4 domain, wild type (domain or fragment)” yielded a Kd of 3.2 nM, a koff of 6.2e-05 s⁻¹ and a kon of 19300 M⁻¹ s⁻¹.

Each substance was assayed against Recombinant His-tagged EPCR (human) (UniProt Q9UNN8) (assay: SPR; Biacore T-200; biotinylated EPCR immobilized to 650 RU on a CAP chip (Biotin Capture Kit); head structures injected, two-fold dilutions 500 nM to 4 nM, 30 µL/min, 240 s association, 720 s dissociation; 10 mM HEPES pH 7.4, 300 mM NaCl, 0.05% Tween-20, 2 mg/ml ssDNA; one-site kinetic model).
Recombinant His-tagged EPCR (human), sequence (Q9UNN8 18-238): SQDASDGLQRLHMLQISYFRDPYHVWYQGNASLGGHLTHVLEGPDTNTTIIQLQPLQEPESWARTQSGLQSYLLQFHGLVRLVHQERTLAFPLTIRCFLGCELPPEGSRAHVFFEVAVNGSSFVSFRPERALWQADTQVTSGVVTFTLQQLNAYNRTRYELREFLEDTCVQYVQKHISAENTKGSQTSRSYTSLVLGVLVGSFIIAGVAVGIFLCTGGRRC
Substance “PFD1235w head structure (CIDRα1.6-DBLβ3) (domain or fragment)” has a Kd of 17.1 nM, a koff of 0.000581 s⁻¹ and a kon of 34000 M⁻¹ s⁻¹.
